Substitutions are numbered along the chain they refer to. Names and notes keep the numbering of the source.
B1: dBBDu183H H96D / dBBDu072L (antibody, name in Kabat numbering, V domains shown)
VH: QVQLVESGGGLVQPGRSLRLSCAASGFTFSNAWMHWVRQAPGKGLEWVAQIKDKGNAYAAYYAPSVKGRFTISRDDSKNSIYLQMNSLKTEDTAVYYCHYVDYASASTVLPAFGVDAWGQGTTVTVSS
VL: DIVMTQSPLSLPVTPGEPASISCQASQELVHMNRNTYLHWYQQKPGQAPRLLIYKVSNRFPGVPDRFSGSGSGTDFTLKISRVEAEDVGVYYCAQGTSVPFTFGQGTKLEIK
B2: dBBDu183H A98H / dBBDu072L (antibody, name in Kabat numbering, V domains shown)
VH: B1 VH with D102H, A104H
VL: B1 VL
B3: dBBDu183H H96E / dBBDu072L (antibody, name in Kabat numbering, V domains shown)
VH: B1 VH with D102E
VL: B1 VL
B4: dBBDu183H A100fK / dBBDu072L (antibody, name in Kabat numbering, V domains shown)
VH: B1 VH with D102H, A112K
VL: B1 VL
B5: dBBDu183H A98D / dBBDu072L (antibody, name in Kabat numbering, V domains shown)
VH: B1 VH with D102H, A104D
VL: B1 VL
B6: dBBDu183H V95H / dBBDu072L (antibody, name in Kabat numbering, V domains shown)
VH: B1 VH with V101H, D102H
VL: B1 VL
B7: dBBDu183H V100iD / dBBDu072L (antibody, name in Kabat numbering, V domains shown)
VH: B1 VH with D102H, V115D
VL: B1 VL
B8: dBBDu183H A102E / dBBDu072L (antibody, name in Kabat numbering, V domains shown)
VH: B1 VH with D102H, A117E
VL: B1 VL
B9: dBBDu183H H93E / dBBDu072L (antibody, name in Kabat numbering, V domains shown)
VH: B1 VH with H99E, D102H
VL: B1 VL
B10: dBBDu183H V95E / dBBDu072L (antibody, name in Kabat numbering, V domains shown)
VH: B1 VH with V101E, D102H
VL: B1 VL
B11: dBBDu183H Y94H / dBBDu072L (antibody, name in Kabat numbering, V domains shown)
VH: B1 VH with Y100H, D102H
VL: B1 VL
B12: dBBDu183H Y97D / dBBDu072L (antibody, name in Kabat numbering, V domains shown)
VH: B1 VH with D102H, Y103D
VL: B1 VL
B13: dBBDu183H G100hE / dBBDu072L (antibody, name in Kabat numbering, V domains shown)
VH: B1 VH with D102H, G114E
VL: B1 VL
B14: dBBDu183H T100bK / dBBDu072L (antibody, name in Kabat numbering, V domains shown)
VH: B1 VH with D102H, T108K
VL: B1 VL
B15: dBBDu183H A100D / dBBDu072L (antibody, name in Kabat numbering, V domains shown)
VH: B1 VH with D102H, A106D
VL: B1 VL
B16: dBBDu183H V100iE / dBBDu072L (antibody, name in Kabat numbering, V domains shown)
VH: B1 VH with D102H, V115E
VL: B1 VL
B17: dBBDu183H Y97K / dBBDu072L (antibody, name in Kabat numbering, V domains shown)
VH: B1 VH with D102H, Y103K
VL: B1 VL
B18: dBBDu183H Y97E / dBBDu072L (antibody, name in Kabat numbering, V domains shown)
VH: B1 VH with D102H, Y103E
VL: B1 VL
B19: dBBDu183H G100hD / dBBDu072L (antibody, name in Kabat numbering, V domains shown)
VH: B1 VH with D102H, G114D
VL: B1 VL
B20: dBBDu183H S99E / dBBDu072L (antibody, name in Kabat numbering, V domains shown)
VH: B1 VH with D102H, S105E
VL: B1 VL
B21: dBBDu183H S100aK / dBBDu072L (antibody, name in Kabat numbering, V domains shown)
VH: B1 VH with D102H, S107K
VL: B1 VL
B22: dBBDu183H D101H / dBBDu072L (antibody, name in Kabat numbering, V domains shown)
VH: B1 VH with D102H, D116H
VL: B1 VL
B23: dBBDu183H V95K / dBBDu072L (antibody, name in Kabat numbering, V domains shown)
VH: B1 VH with V101K, D102H
VL: B1 VL
B24: dBBDu183H L100dH / dBBDu072L (antibody, name in Kabat numbering, V domains shown)
VH: B1 VH with D102H, L110H
VL: B1 VL
B25: dBBDu183H A100fD / dBBDu072L (antibody, name in Kabat numbering, V domains shown)
VH: B1 VH with D102H, A112D
VL: B1 VL
B26: dBBDu183H T100bH / dBBDu072L (antibody, name in Kabat numbering, V domains shown)
VH: B1 VH with D102H, T108H
VL: B1 VL
B27: dBBDu183H S100aD / dBBDu072L (antibody, name in Kabat numbering, V domains shown)
VH: B1 VH with D102H, S107D
VL: B1 VL
B28: dBBDu183H G100hH / dBBDu072L (antibody, name in Kabat numbering, V domains shown)
VH: B1 VH with D102H, G114H
VL: B1 VL
B29: dBBDu183H Y94E / dBBDu072L (antibody, name in Kabat numbering, V domains shown)
VH: B1 VH with Y100E, D102H
VL: B1 VL
B30: dBBDu183H V100iH / dBBDu072L (antibody, name in Kabat numbering, V domains shown)
VH: B1 VH with D102H, V115H
VL: B1 VL
B31: dBBDu183H S100aE / dBBDu072L (antibody, name in Kabat numbering, V domains shown)
VH: B1 VH with D102H, S107E
VL: B1 VL
B32: dBBDu183H S99D / dBBDu072L (antibody, name in Kabat numbering, V domains shown)
VH: B1 VH with D102H, S105D
VL: B1 VL
B33: dBBDu183H V100cD / dBBDu072L (antibody, name in Kabat numbering, V domains shown)
VH: B1 VH with D102H, V109D
VL: B1 VL
B34: dBBDu183H F100gD / dBBDu072L (antibody, name in Kabat numbering, V domains shown)
VH: B1 VH with D102H, F113D
VL: B1 VL
B35: dBBDu183H A102D / dBBDu072L (antibody, name in Kabat numbering, V domains shown)
VH: B1 VH with D102H, A117D
VL: B1 VL
B36: dBBDu183H A98K / dBBDu072L (antibody, name in Kabat numbering, V domains shown)
VH: B1 VH with D102H, A104K
VL: B1 VL
B37: dBBDu183H L100dD / dBBDu072L (antibody, name in Kabat numbering, V domains shown)
VH: B1 VH with D102H, L110D
VL: B1 VL
B38: dBBDu183H H93K / dBBDu072L (antibody, name in Kabat numbering, V domains shown)
VH: B1 VH with H99K, D102H
VL: B1 VL
B39: dBBDu183H S100aH / dBBDu072L (antibody, name in Kabat numbering, V domains shown)
VH: B1 VH with D102H, S107H
VL: B1 VL
B40: dBBDu183H Y97H / dBBDu072L (antibody, name in Kabat numbering, V domains shown)
VH: B1 VH with D102H, Y103H
VL: B1 VL
B41: dBBDu183H Y94K / dBBDu072L (antibody, name in Kabat numbering, V domains shown)
VH: B1 VH with Y100K, D102H
VL: B1 VL
B42: dBBDu183H A100H / dBBDu072L (antibody, name in Kabat numbering, V domains shown)
VH: B1 VH with D102H, A106H
VL: B1 VL
B43: dBBDu183H H96K / dBBDu072L (antibody, name in Kabat numbering, V domains shown)
VH: B1 VH with D102K
VL: B1 VL
B44: dBBDu183H T100bD / dBBDu072L (antibody, name in Kabat numbering, V domains shown)
VH: B1 VH with D102H, T108D
VL: B1 VL
B45: dBBDu183H A102H / dBBDu072L (antibody, name in Kabat numbering, V domains shown)
VH: B1 VH with D102H, A117H
VL: B1 VL
B46: dBBDu183H A100fE / dBBDu072L (antibody, name in Kabat numbering, V domains shown)
VH: B1 VH with D102H, A112E
VL: B1 VL
B47: dBBDu183H T100bE / dBBDu072L (antibody, name in Kabat numbering, V domains shown)
VH: B1 VH with D102H, T108E
VL: B1 VL

Molecular target: Human CD137 ECD (human)
Sequence (chain, as listed by the source limits assumed): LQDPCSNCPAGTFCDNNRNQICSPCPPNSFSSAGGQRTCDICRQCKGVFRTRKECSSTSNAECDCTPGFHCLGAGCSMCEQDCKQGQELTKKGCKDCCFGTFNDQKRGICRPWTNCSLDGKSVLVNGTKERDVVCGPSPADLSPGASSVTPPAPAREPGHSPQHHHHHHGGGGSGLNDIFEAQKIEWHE
Experiment: SPR, vs parent H183/L072

| fold change of affinity [fold] | Binder |
| --- | --- |
| 0 | B1 |
| 0 | B2 |
| 0 | B3 |
| 0 | B4 |
| 0 | B5 |
| 0 | B6 |
| 0 | B7 |
| 0 | B8 |
| 0 | B9 |
| 0 | B10 |
| 0 | B11 |
| 0 | B12 |
| 0 | B13 |
| 0 | B14 |
| 0 | B15 |
| 0 | B16 |
| 0 | B17 |
| 0 | B18 |
| 0 | B19 |
| 0 | B20 |
| 0 | B21 |
| 0 | B22 |
| 0 | B23 |
| 0 | B24 |

| fold change of affinity [fold] | Binder |
| --- | --- |
| 0 | B25 |
| 0 | B26 |
| 0 | B27 |
| 0 | B28 |
| 0 | B29 |
| 0 | B30 |
| 0 | B31 |
| 0 | B32 |
| 0 | B33 |
| 0 | B34 |
| 0 | B35 |
| 0 | B36 |
| 0 | B37 |
| 0 | B38 |
| 0 | B39 |
| 0 | B40 |
| 0 | B41 |
| 0 | B42 |
| 0 | B43 |
| 0 | B44 |
| 0 | B45 |
| 0 | B46 |
| 0 | B47 |
